Measurements reported in US20210230570A1.

target: plasma purified human AT-III (antithrombin III), in complex with low molecular weight heparin (human) (UniProt P01008); test: K0.5: AT-III conc. for 50% inhibition of FIXa cleavage of Pefafluor FIXa; AT-III/LMWH, 1 uM LMWH, 1 min
Sequence (P01008 33-464, one chain of several): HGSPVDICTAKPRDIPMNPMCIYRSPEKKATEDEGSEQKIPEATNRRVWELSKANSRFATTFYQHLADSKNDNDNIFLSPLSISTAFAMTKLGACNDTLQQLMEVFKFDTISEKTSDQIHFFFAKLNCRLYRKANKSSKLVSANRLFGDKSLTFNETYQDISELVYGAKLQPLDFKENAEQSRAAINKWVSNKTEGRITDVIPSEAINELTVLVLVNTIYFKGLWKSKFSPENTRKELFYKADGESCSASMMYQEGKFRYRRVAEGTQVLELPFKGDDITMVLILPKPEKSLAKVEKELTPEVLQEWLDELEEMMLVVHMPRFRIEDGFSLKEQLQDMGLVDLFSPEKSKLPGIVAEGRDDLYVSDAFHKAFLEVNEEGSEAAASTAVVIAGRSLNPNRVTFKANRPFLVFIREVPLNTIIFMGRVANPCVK

| IC50 | Substance |
| --- | --- |
| 20.2 nM | Plasma Purified FIXa (from UniProt P00740 47-191; P00740 227-461) (enzyme) |

target: Factor VIIIa (recombinant FVIII, Kogenate FS, activated with alpha-thrombin) (UniProt P00451); test: functional KD-app: FVIIIa titrated (0-400 nM) on 2 pM FIXa, PC/PS vesicles, 500 nM FX, fluorogenic FXa substrate
Sequence (P00451 20-391, chain 1 of 3): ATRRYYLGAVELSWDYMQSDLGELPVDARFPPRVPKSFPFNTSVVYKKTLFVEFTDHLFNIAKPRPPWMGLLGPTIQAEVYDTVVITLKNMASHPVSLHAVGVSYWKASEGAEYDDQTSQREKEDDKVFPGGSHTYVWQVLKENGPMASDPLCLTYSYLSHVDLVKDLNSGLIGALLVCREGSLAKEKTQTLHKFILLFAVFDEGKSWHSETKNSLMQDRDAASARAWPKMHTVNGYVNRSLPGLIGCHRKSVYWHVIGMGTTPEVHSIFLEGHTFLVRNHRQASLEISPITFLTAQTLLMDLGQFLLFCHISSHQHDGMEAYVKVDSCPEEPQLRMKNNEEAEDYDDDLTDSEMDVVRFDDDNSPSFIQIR
Sequence (P00451 392-759, chain 2 of 3): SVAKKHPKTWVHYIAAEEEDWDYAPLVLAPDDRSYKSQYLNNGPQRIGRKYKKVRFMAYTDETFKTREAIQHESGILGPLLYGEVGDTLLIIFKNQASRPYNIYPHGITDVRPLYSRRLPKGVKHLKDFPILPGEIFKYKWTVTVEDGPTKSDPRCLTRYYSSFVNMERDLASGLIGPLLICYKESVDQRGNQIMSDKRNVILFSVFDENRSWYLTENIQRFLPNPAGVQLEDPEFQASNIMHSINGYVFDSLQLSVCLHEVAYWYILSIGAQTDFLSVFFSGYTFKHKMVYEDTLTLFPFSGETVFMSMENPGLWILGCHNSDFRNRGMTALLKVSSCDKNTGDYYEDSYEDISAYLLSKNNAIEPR
Sequence (P00451 1709-2351, chain 3 of 3): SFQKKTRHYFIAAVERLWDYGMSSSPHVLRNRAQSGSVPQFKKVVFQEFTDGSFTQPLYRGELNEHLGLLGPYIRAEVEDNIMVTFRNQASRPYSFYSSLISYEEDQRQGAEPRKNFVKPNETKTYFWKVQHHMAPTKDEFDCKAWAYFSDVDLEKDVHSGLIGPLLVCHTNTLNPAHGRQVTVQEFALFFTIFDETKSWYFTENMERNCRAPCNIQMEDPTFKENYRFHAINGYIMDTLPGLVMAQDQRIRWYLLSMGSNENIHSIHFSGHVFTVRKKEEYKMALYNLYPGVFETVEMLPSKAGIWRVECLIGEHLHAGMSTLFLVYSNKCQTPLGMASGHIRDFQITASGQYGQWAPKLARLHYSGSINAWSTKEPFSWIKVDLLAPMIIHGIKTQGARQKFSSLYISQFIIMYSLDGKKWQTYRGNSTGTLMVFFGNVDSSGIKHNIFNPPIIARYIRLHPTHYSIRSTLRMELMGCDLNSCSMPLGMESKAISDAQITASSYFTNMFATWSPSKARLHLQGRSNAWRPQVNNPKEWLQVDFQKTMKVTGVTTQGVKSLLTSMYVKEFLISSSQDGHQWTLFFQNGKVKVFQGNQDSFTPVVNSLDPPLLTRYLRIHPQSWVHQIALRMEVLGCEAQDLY

| Substance | Kd |
| --- | --- |
| FIXa-Y155F/R318Y/R338E/T343R (from UniProt P00740 47-191; P00740 227-461) (enzyme) | 8.4 nM |
| FIXa-K228N/K247N/N249S/R318Y/R338E/T343R/R403E/E410N (from UniProt P00740 47-191; P00740 227-461) (enzyme) | 29.1 nM |
| FIXa-R338E/T343R/R403E/E410N (from UniProt P00740 47-191; P00740 227-461) (enzyme) | 29.4 nM |
| FIXa-Y155F/K228N/K247N/N249S/R318Y/R338E/T343R/R403E/E410N (from UniProt P00740 47-191; P00740 227-461) (enzyme) | 37 nM |
| FIXa-Y155F/R338E/T343R/E410N (from UniProt P00740 47-191; P00740 227-461) (enzyme) | 8.5 nM |
| FIXa-Y155F/K247N/N249S/R338E/E410N (from UniProt P00740 47-191; P00740 227-461) (enzyme) | 24.9 nM |
| FIXa-K228N/K247N/N249S/R318Y/R338E/T343R/E410N (from UniProt P00740 47-191; P00740 227-461) (enzyme) | 7.8 nM |
| FIXa-Y155F/R318Y/R338E/T343R/E410N (from UniProt P00740 47-191; P00740 227-461) (enzyme) | 7.4 nM |
| FIXa-Y155F/K247N/N249S/R318Y/R338E/T343R/R403E/E410N (from UniProt P00740 47-191; P00740 227-461) (enzyme) | 15.3 nM |
| FIXa-R318Y/R338E/T343R/R403E/E410S (from UniProt P00740 47-191; P00740 227-461) (enzyme) | 23.2 nM |
| FIXa-Y155F/K247N/N249S/R338E/T343R (from UniProt P00740 47-191; P00740 227-461) (enzyme) | 15.4 nM |
| FIXa-R318Y/R338E/T343R (from UniProt P00740 47-191; P00740 227-461) (enzyme) | 9.8 nM |
| FIXa-Y155F/R318Y/T343R/E410N (from UniProt P00740 47-191; P00740 227-461) (enzyme) | 38 nM |
| FIXa-R318Y/R338E/T343R/E410N (from UniProt P00740 47-191; P00740 227-461) (enzyme) | 6.1 nM |
| FIXa-R338E/T343R/E410N (from UniProt P00740 47-191; P00740 227-461) (enzyme) | 7.5 nM |

Now from value to substance:

| Kd | Substance |
| --- | --- |
| 14.7 nM | FIXa-K247N/N249S/R318Y/R338E/T343R (from UniProt P00740 47-191; P00740 227-461) (enzyme) |
| 55 nM | FIXa-R338E/T343R/R403E (from UniProt P00740 47-191; P00740 227-461) (enzyme) |
| 72.1 nM | FIXa-Y155F/R338E/T343R/R403E (from UniProt P00740 47-191; P00740 227-461) (enzyme) |
| 17.5 nM | FIXa-K228N/R318Y/R338E/T343R/R403E/E410N (from UniProt P00740 47-191; P00740 227-461) (enzyme) |
| 13.9 nM | FIXa-Y155F/K247N/N249S/R318Y/R338E/T343R/E410N (from UniProt P00740 47-191; P00740 227-461) (enzyme) |
| 28.5 nM | FIXa-Y155F/R338E/T343R/R403E/E410N (from UniProt P00740 47-191; P00740 227-461) (enzyme) |
| 84.1 nM | FIXa-R318Y/T343R/R403E/E410N (from UniProt P00740 47-191; P00740 227-461) (enzyme) |

target: Factor VIIIa (recombinant FVIII, Kogenate FS, activated with alpha-thrombin) (UniProt P00451); test: apparent KD (KD-app): FX activation rate (Spectrafluor FXa fluorescence) vs FVIIIa titration, PC/PS vesicles, Ca2+; indirect functional assay

| Substance | Kd |
| --- | --- |
| FIXa variant R318Y (from UniProt P00740 47-191; P00740 227-461) (enzyme) | 192 nM |
| FIXa variant R318E (from UniProt P00740 47-191; P00740 227-461) (enzyme) | 67 nM |
| FIXa variant K293A (from UniProt P00740 47-191; P00740 227-461) (enzyme) | 86.6 nM |
| FIXa variant E239N (from UniProt P00740 47-191; P00740 227-461) (enzyme) | 77.3 nM |
| FIXa variant K400A/R403A (from UniProt P00740 47-191; P00740 227-461) (enzyme) | 130 nM |
| FIXa variant R318Y/R338E/R403E/E410N (from UniProt P00740 47-191; P00740 227-461) (enzyme) | 47 nM |
| BeneFIX Coagulation FIX (T148A), activated (FIXa) (from UniProt P00740 47-191; P00740 227-461) (enzyme) | 90.2 nM |
| FIXa variant E410N (from UniProt P00740 47-191; P00740 227-461) (enzyme) | 74.2 nM |
| FIXa variant R338E/R403E/E410N (from UniProt P00740 47-191; P00740 227-461) (enzyme) | 54.9 nM |
| FIXa variant T148A (from UniProt P00740 47-191; P00740 227-461) (enzyme) | 79.7 nM |
| FIXa variant D104N/K106S/I251S (from UniProt P00740 47-191; P00740 227-461) (enzyme) | 306 nM |
| FIXa variant R403E/E410N (from UniProt P00740 47-191; P00740 227-461) (enzyme) | 910 nM |
| FIXa variant A262S (from UniProt P00740 47-191; P00740 227-461) (enzyme) | 94.1 nM |
| FIXa variant T241N/H243S (from UniProt P00740 47-191; P00740 227-461) (enzyme) | 75.5 nM |
| FIXa variant V202Y (from UniProt P00740 47-191; P00740 227-461) (enzyme) | 61.5 nM |
| FIXa variant S319N/L321S (from UniProt P00740 47-191; P00740 227-461) (enzyme) | 52.4 nM |
| FIXa variant R338E/E410N (from UniProt P00740 47-191; P00740 227-461) (enzyme) | 4.1 nM |
| FIXa variant E410S (from UniProt P00740 47-191; P00740 227-461) (enzyme) | 99.6 nM |
| FIXa variant R312A (from UniProt P00740 47-191; P00740 227-461) (enzyme) | 52.9 nM |
| FIXa variant R318Y/R338E/E410N (from UniProt P00740 47-191; P00740 227-461) (enzyme) | 7.7 nM |
| FIXa variant K400E/R403E (from UniProt P00740 47-191; P00740 227-461) (enzyme) | 298 nM |
| FIXa variant K316N (from UniProt P00740 47-191; P00740 227-461) (enzyme) | 66.4 nM |
| Catalyst Biosciences WT FIXa (recombinant wild-type FIXa) (from UniProt P00740 47-191; P00740 227-461) (enzyme) | 95.5 nM |

The next lines start with the values.

| Kd | Substance |
| --- | --- |
| 60.6 nM | FIXa variant A204M (from UniProt P00740 47-191; P00740 227-461) (enzyme) |
| 183 nM | FIXa variant R338E/R403E (from UniProt P00740 47-191; P00740 227-461) (enzyme) |
| 61.6 nM | FIXa variant D104N/K106S/Y155F/R318Y/R338E/R403E/E410N (from UniProt P00740 47-191; P00740 227-461) (enzyme) |
| 85.2 nM | FIXa variant R312Y (from UniProt P00740 47-191; P00740 227-461) (enzyme) |
| 654 nM | FIXa variant R403E (from UniProt P00740 47-191; P00740 227-461) (enzyme) |
| 45.2 nM | FIXa variant R312Q (from UniProt P00740 47-191; P00740 227-461) (enzyme) |
| 12.4 nM | FIXa variant D104N/K106S/R318Y/R338E/E410N (from UniProt P00740 47-191; P00740 227-461) (enzyme) |
| 98.9 nM | FIXa variant K400A (from UniProt P00740 47-191; P00740 227-461) (enzyme) |
| 68.9 nM | FIXa variant R312L (from UniProt P00740 47-191; P00740 227-461) (enzyme) |
| 340 nM | FIXa variant R318Y/R338E/R403E (from UniProt P00740 47-191; P00740 227-461) (enzyme) |
| 77.4 nM | FIXa variant D203Y (from UniProt P00740 47-191; P00740 227-461) (enzyme) |
| 43 nM | FIXa variant R338E (from UniProt P00740 47-191; P00740 227-461) (enzyme) |
| 81.3 nM | FIXa variant H257E (from UniProt P00740 47-191; P00740 227-461) (enzyme) |
| 126 nM | FIXa variant N346D (from UniProt P00740 47-191; P00740 227-461) (enzyme) |
